For experiment [1], the target named is SmBiT(ΔC3) (NanoBiT small fragment truncated by 3 amino acids at the C-terminus). Description: cell-based or functional assay.
The target of experiment [2] is ERK substrate (Cdc25C substrate sequence with second phosphorylation site, V-3S). The experiment is described as follows: cell-based or functional assay.

Take “LgBiT (NanoBiT large fragment of NanoLuc), ΔN2 (enzyme)”: in experiment [1], the response (luminescence induction by ERK inhibition) of the reporter with truncated SmBiT turned out to be 300%.

The substance “WW phospho-binding domain (proline-directed WW phospho-binding domain from Pin1) (from UniProt Q13526 1-54)” registered an induction of luminescence (ΔC3 V-3S) in experiment [2] of 8.8 fold. For “WW phospho-binding domain with F25A mutation (from UniProt Q13526 1-54)”, in experiment [2], the induction of luminescence by Vx-11e (bKiMBI) was above 10 fold.

Values taken from patent US20260077065A1, “Compositions and Methods for Assessing Kinase Activity” (The Board of Trustees of the Leland Stanford Junior …, priority 2022, published 2026).
